Assay results taken from patent US20050060761A1.

Target: TrkB receptor (endogenous, at mouse motor nerve terminals) (mouse) (UniProt P15209)
Experiment: cell-based or functional assay

Sequence of UniProt P15209 (P15209 32-821): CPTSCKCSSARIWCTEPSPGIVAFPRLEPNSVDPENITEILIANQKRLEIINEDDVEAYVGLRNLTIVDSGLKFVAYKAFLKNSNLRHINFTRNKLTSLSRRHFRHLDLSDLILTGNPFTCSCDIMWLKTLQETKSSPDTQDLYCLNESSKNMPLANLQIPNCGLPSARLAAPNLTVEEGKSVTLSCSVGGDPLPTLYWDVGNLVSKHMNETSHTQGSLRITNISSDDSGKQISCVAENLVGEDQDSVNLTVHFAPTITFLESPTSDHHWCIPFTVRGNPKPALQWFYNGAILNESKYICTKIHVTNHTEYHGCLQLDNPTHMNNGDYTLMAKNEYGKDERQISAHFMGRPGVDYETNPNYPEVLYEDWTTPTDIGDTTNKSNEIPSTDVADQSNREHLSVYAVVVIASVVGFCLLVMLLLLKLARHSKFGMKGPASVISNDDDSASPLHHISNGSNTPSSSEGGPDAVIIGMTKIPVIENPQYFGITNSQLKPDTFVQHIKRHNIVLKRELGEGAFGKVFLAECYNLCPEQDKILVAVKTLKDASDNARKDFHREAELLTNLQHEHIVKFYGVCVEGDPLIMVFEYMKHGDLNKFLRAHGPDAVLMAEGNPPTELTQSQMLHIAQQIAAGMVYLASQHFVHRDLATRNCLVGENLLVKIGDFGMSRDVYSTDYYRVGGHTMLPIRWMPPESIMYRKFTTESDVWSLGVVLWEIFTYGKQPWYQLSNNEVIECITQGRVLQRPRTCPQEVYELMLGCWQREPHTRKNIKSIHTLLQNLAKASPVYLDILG

Substance | elevation in the level of GFP-TTC concentration at the NMJ (LAL), 100 ng BDNF | elevation in the level of GFP-TTC concentration at the NMJ (LAL), 250 ng BDNF | increase of GFP-TTC signal at the NMJ by BDNF after BoTx/A treatment | GFP-TTC localization at the NMJ, fold increase
recombinant human Brain Derived Neurotrophic Factor (BDNF) (from UniProt P23560 129-247) (ligand) | 1.72 fold | 1.15 fold | 2.05 fold | –
recombinant human Neurotrophin 4 (NT-4) (from UniProt P34130 81-210) (ligand) | – | – | – | 1.54 fold
